Targets include DLG1_1, Q12959; DLG1_3, Q12959; DLG4_1, P78352; Inadl_3, Q8NI35; Inadl_4, Q8NI35; Inadl_9, Q8NI35; MAGI1_2, Q96QZ7; MAGI2_5, Q86UL8.
Holding throughout (assay): holdup assay
What all share (parameters): key: below the threshold = too weak to quantify, mostly under pKd 3.1 to 4

Another assay has as its target T1, APBA1_1, Q02410.
T1 sequence (Q02410 651-752, limits assumed, looked up): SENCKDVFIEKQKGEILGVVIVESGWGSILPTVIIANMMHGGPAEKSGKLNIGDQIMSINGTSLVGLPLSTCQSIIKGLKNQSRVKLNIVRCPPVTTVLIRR

The target in another assay is T2, APBA2_1, Q99767.
T2 sequence (Q99767 563-664, limits assumed, looked up): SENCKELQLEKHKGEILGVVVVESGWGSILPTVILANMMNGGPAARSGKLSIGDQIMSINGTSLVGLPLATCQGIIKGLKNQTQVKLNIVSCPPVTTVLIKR

Another assay concerns the target T3, APBA2_2, Q99767.
T3 sequence (Q99767 654-744, limits assumed, looked up): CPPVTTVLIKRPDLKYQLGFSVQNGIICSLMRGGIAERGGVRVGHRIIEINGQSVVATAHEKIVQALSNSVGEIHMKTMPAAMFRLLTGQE

In another assay the target is T4, DFNB31_3, Q9P202.
T4 sequence (Q9P202 811-907, limits assumed, looked up): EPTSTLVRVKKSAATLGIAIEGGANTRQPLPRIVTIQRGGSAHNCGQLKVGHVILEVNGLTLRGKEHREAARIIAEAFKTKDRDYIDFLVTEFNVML

In another assay the target is T5, GRIP1_2, Q9Y3R0.
T5 sequence (Q9Y3R0 145-248, limits assumed, looked up): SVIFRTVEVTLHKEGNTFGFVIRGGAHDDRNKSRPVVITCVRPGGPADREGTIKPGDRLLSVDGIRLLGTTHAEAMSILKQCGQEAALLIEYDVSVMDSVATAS

For a further assay, the target named is T6, GRIP1_3, Q9Y3R0.
T6 sequence (Q9Y3R0 247-346, limits assumed, looked up): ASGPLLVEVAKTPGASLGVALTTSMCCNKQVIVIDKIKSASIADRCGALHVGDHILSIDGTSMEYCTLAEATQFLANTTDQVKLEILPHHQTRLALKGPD

Another assay addresses T7, HTRA4, P83105.
T7 sequence (P83105 378-476, limits assumed, looked up): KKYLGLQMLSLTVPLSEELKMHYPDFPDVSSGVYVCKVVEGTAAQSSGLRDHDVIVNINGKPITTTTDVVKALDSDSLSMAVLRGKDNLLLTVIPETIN

Another assay addresses T8, LIN7C, Q9NUP9.
T8 sequence (Q9NUP9 88-185, limits assumed, looked up): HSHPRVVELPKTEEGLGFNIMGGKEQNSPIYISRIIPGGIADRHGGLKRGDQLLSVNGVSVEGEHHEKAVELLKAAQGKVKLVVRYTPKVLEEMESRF

The target in the next assay is T9, PDZD7_3, Q9H5P4.
T9 sequence (Q9H5P4 857-944, limits assumed, looked up): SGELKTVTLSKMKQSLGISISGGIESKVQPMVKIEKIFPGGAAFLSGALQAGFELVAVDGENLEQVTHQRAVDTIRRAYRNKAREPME

The target of another assay is T10, RAPGEF6, Q8TEU7.
T10 sequence (Q8TEU7 525-625, limits assumed, looked up): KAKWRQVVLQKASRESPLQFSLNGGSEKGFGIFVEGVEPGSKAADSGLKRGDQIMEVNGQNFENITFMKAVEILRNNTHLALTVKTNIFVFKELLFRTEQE

The target of a further assay is T11, SNTA1, Q13424.
T11 sequence (Q13424 82-180, limits assumed, looked up): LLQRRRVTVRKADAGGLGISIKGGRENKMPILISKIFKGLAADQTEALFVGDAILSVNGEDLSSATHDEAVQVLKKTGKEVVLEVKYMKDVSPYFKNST

The next assay deals with T12, SYNJ2BP, P57105.
T12 sequence (P57105 8-110, limits assumed, looked up): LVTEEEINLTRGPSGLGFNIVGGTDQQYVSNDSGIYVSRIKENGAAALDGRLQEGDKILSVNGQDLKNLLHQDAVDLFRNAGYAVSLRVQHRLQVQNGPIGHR

The next assay concerns the target T13, TIAM2, Q8IVF5.
T13 sequence (Q8IVF5 885-986, limits assumed, looked up): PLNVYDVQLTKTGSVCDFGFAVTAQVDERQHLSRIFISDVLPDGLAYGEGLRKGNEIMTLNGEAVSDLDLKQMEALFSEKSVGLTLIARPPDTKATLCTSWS

The target of the next assay is T14, TX1BP3, O14907.
T14 sequence (O14907 10-122, limits assumed, looked up): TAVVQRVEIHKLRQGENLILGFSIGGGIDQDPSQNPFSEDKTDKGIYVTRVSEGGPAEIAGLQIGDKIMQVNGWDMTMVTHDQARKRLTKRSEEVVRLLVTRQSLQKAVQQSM

[1] abbreviates: plain residues with an end cap or a label only (N-terminal biotin on a linker: gsgsgs; C-terminal amide).
The mark [2] stands for this setting: plain residues with an end cap or a label only (N-terminal biotin on a linker: ttds).
Setting [3] is: plain residues with an end cap or a label only (N-terminal biotin on a linker: ahx).

Chain of Inadl_4, Q8NI35 (Q8NI35 547-651): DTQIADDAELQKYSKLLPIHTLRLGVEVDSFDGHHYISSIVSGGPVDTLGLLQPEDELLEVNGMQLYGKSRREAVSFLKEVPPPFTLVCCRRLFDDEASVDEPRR
Chain of Inadl_9, Q8NI35 (Q8NI35 1530-1615): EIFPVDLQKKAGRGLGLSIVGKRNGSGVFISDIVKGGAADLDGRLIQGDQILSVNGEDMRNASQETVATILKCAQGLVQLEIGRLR
Chain of DLG4_1, P78352 (P78352 62-152): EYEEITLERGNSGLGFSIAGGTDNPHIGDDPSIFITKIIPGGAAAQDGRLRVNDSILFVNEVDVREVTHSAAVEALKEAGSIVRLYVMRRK
Chain of MAGI2_5, Q86UL8 (Q86UL8 915-1017): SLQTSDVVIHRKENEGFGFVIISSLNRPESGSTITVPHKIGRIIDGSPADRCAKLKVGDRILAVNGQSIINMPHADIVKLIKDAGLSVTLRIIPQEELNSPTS
Chain of Inadl_3, Q8NI35 (Q8NI35 359-469): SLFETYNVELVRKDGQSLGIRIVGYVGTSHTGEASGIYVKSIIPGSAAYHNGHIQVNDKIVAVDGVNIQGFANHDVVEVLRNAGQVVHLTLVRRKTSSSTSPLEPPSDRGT
Chain of MAGI1_2, Q96QZ7 (Q96QZ7 456-580): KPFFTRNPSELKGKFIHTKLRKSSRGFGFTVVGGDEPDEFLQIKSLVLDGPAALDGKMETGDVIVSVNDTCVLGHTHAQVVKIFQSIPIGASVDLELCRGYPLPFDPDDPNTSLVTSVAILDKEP

B1: MLLT4_int, P55196 (peptide)
chain: YGIVQETTFDLGGDIH
The pKd is the negative decadic logarithm of the Kd, by convention in mol/L. For the molecule B1, the pKd entry was “below the threshold” in the assay with APBA1_1, Q02410 (setting [1]); “below the threshold” in the assay with APBA2_1, Q99767 (setting [1]); “below the threshold” in the assay with APBA2_2, Q99767 (setting [1]); 3.83 in the assay with DFNB31_3, Q9P202 (setting [1]); “below the threshold” with DLG1_1, Q12959 (setting [1]); “below the threshold” in the assay with DLG1_3, Q12959 (setting [1]). Also, the pKd entry is given as “below the threshold” with DLG4_1, P78352 (setting [1]); “below the threshold” with GRIP1_2, Q9Y3R0 (setting [1]); “below the threshold” with GRIP1_3, Q9Y3R0 (setting [1]); “below the threshold” in the assay with HTRA4, P83105 (setting [1]); “below the threshold” with Inadl_3, Q8NI35 (setting [1]); “below the threshold” with Inadl_4, Q8NI35 (setting [1]). Also, the pKd result with Inadl_9, Q8NI35 (setting [1]) was “below the threshold”; with LIN7C, Q9NUP9 (setting [1]) it was 3.85; with MAGI1_2, Q96QZ7 (setting [1]), “below the threshold”; in the assay with MAGI2_5, Q86UL8 (setting [1]), “below the threshold”; with PDZD7_3, Q9H5P4 (setting [1]) it was 4.9; with RAPGEF6, Q8TEU7 (setting [1]), “below the threshold”. In addition, the negative logarithm of the Kd (pKd) result was “below the threshold” with SNTA1, Q13424 (setting [1]); “below the threshold” with SYNJ2BP, P57105 (setting [1]); 3.98 with TIAM2, Q8IVF5 (setting [1]); 3.83 with TX1BP3, O14907 (setting [1]).

B2: SLC2A1, P11166 (peptide)
chain: FHPLGADSQV
In the case of B2, the pKd result with APBA1_1, Q02410 (setting [2]) is “below the threshold”; with APBA2_1, Q99767 (setting [2]), “below the threshold”; in the assay with APBA2_2, Q99767 (setting [2]), “below the threshold”; with DFNB31_3, Q9P202 (setting [2]), “below the threshold”; with DLG1_1, Q12959 (setting [2]), “below the threshold”; in the assay with DLG1_3, Q12959 (setting [2]), “below the threshold”. The pKd is 3.51 with DLG4_1, P78352 (setting [2]); “below the threshold” with GRIP1_2, Q9Y3R0 (setting [2]); “below the threshold” in the assay with GRIP1_3, Q9Y3R0 (setting [2]); “below the threshold” with HTRA4, P83105 (setting [2]); “below the threshold” with Inadl_3, Q8NI35 (setting [2]); “below the threshold” with Inadl_4, Q8NI35 (setting [2]). Moreover, the negative-log Kd (pKd) result was “below the threshold” in the assay with Inadl_9, Q8NI35 (setting [2]); “below the threshold” with LIN7C, Q9NUP9 (setting [2]); “below the threshold” with MAGI1_2, Q96QZ7 (setting [2]); “below the threshold” with MAGI2_5, Q86UL8 (setting [2]); “below the threshold” with PDZD7_3, Q9H5P4 (setting [2]); “below the threshold” in the assay with RAPGEF6, Q8TEU7 (setting [2]). The pKd result in the assay with SNTA1, Q13424 (setting [2]) was “below the threshold”; in the assay with SYNJ2BP, P57105 (setting [2]), 4.46; in the assay with TIAM2, Q8IVF5 (setting [2]) it was “below the threshold”; with TX1BP3, O14907 (setting [2]), 3.77.

B3: PSCDBP, O60759 (peptide)
chain: RAVEEEESRF
In the case of B3, the pKd entry with APBA1_1, Q02410 (setting [3]) is given as “below the threshold”; in the assay with APBA2_1, Q99767 (setting [3]), “below the threshold”; in the assay with APBA2_2, Q99767 (setting [3]), “below the threshold”; in the assay with DFNB31_3, Q9P202 (setting [3]) it was “below the threshold”; with DLG1_1, Q12959 (setting [3]) it was “below the threshold”; in the assay with DLG1_3, Q12959 (setting [3]), “below the threshold”. Further, the pKd entry is “below the threshold” in the assay with DLG4_1, P78352 (setting [3]); “below the threshold” with GRIP1_2, Q9Y3R0 (setting [3]); “below the threshold” with GRIP1_3, Q9Y3R0 (setting [3]); “below the threshold” with HTRA4, P83105 (setting [3]); “below the threshold” with Inadl_3, Q8NI35 (setting [3]); “below the threshold” with Inadl_4, Q8NI35 (setting [3]). Besides, the pKd result was “below the threshold” with Inadl_9, Q8NI35 (setting [3]); “below the threshold” with LIN7C, Q9NUP9 (setting [3]); “below the threshold” in the assay with MAGI1_2, Q96QZ7 (setting [3]); 3.7 with MAGI2_5, Q86UL8 (setting [3]); “below the threshold” in the assay with PDZD7_3, Q9H5P4 (setting [3]); “below the threshold” with RAPGEF6, Q8TEU7 (setting [3]). Besides, the pKd result is “below the threshold” in the assay with SNTA1, Q13424 (setting [3]); “below the threshold” in the assay with SYNJ2BP, P57105 (setting [3]); “below the threshold” in the assay with TIAM2, Q8IVF5 (setting [3]); “below the threshold” with TX1BP3, O14907 (setting [3]).

B4: DOCK4, Q8N1I0 (peptide)
chain: RPLPRKVSQL
For the molecule B4, the pKd entry was “below the threshold” with APBA1_1, Q02410 (setting [2]); “below the threshold” with APBA2_1, Q99767 (setting [2]); “below the threshold” in the assay with APBA2_2, Q99767 (setting [2]); “below the threshold” in the assay with DFNB31_3, Q9P202 (setting [2]); “below the threshold” with DLG1_1, Q12959 (setting [2]); 3.84 with DLG1_3, Q12959 (setting [2]). Further, the pKd result with DLG4_1, P78352 (setting [2]) is “below the threshold”; in the assay with GRIP1_2, Q9Y3R0 (setting [2]), “below the threshold”; with GRIP1_3, Q9Y3R0 (setting [2]), “below the threshold”; with HTRA4, P83105 (setting [2]), “below the threshold”; in the assay with Inadl_3, Q8NI35 (setting [2]) it was “below the threshold”; with Inadl_4, Q8NI35 (setting [2]), “below the threshold”. For the same molecule, the pKd result with Inadl_9, Q8NI35 (setting [2]) was “below the threshold”; in the assay with LIN7C, Q9NUP9 (setting [2]), “below the threshold”; in the assay with MAGI1_2, Q96QZ7 (setting [2]) it was 4.51; with MAGI2_5, Q86UL8 (setting [2]), “below the threshold”; in the assay with PDZD7_3, Q9H5P4 (setting [2]) it was 4.5; with RAPGEF6, Q8TEU7 (setting [2]), “below the threshold”. The negative logarithm of the Kd (pKd) entry is “below the threshold” with SNTA1, Q13424 (setting [2]); 3.59 with SYNJ2BP, P57105 (setting [2]); “below the threshold” with TIAM2, Q8IVF5 (setting [2]); 4.41 in the assay with TX1BP3, O14907 (setting [2]).

Source of the values: article PMC9482650, “Quantitative fragmentomics allow affinity mapping of interactomes” (Nature Communications, 2022).
